Series [1] addresses T1, PSMA (Homo sapiens, UniProt Q04609).
T1 construct: expressed in transfected cells; host or cells: LS174T colon carcinoma cells (LS174T-PSMA)
Nature of the series: competitive binding assay using LS174T-PSMA cells. An excerpt: Fig. 3 In vitro characterization of [^111In]In-DOTA(GA)-IRDye700DX-PSMA ligands varying in their backbone composition. a Labeling efficiency of [^111In]In-DOTA-PSMA-N01, -N02, -N03, [^111In]In-DOTAGA-PSMA-N064 and -N064inc at a specific activity of either 10 MBq/µg or 30 MBq/µg (n = 2). IC50 values of ligands as determined in competitive binding assays using LS174T-PSMA cells. b Binding and internalization of [^111In]In-DOTA-PSMA-N01, -N02, -N03, [^111In]In-DOTAGA-PSMA-N064 and -N064inc in LS174T PSMA-positive cells. Membrane binding and internalization are corrected for non-specific binding and accumulation, as determined by co-incubation with an excess of 2-PMPA (50 µg). [^111In]In-DOTA-PSMA-617 was added as a positive control. c PSMA-targeted PDT efficacy of ligands in vitro. Cell viability of LS174T-PSMA (PSMA +) and LS174T wildtype (PSMA-) cells following incubation with 30 nM of PSMA-N01, -N02, -N03, -N064, and -N064inc, after either a 100 J/cm^2 (450 mW/cm^2) radiant exposure or no light exposure (dark).

The nature of series [2]: PSMA-N064 blocking experiment, ex vivo biodistribution. It is filed as in vivo, BALB/c nude mice. To be noted: male, BALB/c nude, mouse, in vivo, total radioactivity, 2 h p.i., n=5. As for the experimental part: All animal experiments were approved by the institutional Animal Welfare Committee of the Radboud University Medical Center and were conducted in accordance to the guidelines of the Revised Dutch Act on Animal Experimentation. Animal experiments were performed in 8–10 weeks old male BALB/c nude mice (Janvier). The mice were housed in individually ventilated cages (Blue line IVC, 3–5 mice per cage), under standard non-sterile conditions with cage enrichment present. There was free access to chlorophyll-free animal chow (Sniff Voer) and water. Mice were subcutaneously inoculated with 3.0 × 10^6 LS174T-PSMA cells in the right flank and 1.5 × 10^6 LS174T WT cells in the left flank (diluted in 200-µl RPMI 1640 medium). When xenografts were approximately 0.5 cm^3 (10–14 days after injection), mice were block-randomized into groups based on tumor size. The researchers were not blinded for the experimental groups.
Five mice per group were intravenously injected with either 0.1 nmol PSMA-N064, 0.3 nmol PSMA-N064, 0.1 nmol PSMA-N064 + 10 nmol unlabeled PSMA-617 (100x excess) or PSMA-617. Ligands were labeled with 10 MBq ^111In in PBS+0.5% (w/v) BSA. For the ex vivo biodistribution four groups (one for each experimental condition) of five mice were included. Two hours p.i., all mice from all groups were euthanized by CO2/O2-asphyxiation and relevant tissues were dissected, weighed and measured for radioactivity in a gamma-counter (2480 WIZARD^2 Automatic Gamma Counter, PerkinElmer).

Values joined by “and” are separate entries in the source; they are usually repeats but may differ in a detail not shown here. Equal entries are not always repeated. Where two headings read alike, the source gives them in different places. Where only a bound is given, the exact number is not on record here.

T1 sequence (Q04609 whole entry): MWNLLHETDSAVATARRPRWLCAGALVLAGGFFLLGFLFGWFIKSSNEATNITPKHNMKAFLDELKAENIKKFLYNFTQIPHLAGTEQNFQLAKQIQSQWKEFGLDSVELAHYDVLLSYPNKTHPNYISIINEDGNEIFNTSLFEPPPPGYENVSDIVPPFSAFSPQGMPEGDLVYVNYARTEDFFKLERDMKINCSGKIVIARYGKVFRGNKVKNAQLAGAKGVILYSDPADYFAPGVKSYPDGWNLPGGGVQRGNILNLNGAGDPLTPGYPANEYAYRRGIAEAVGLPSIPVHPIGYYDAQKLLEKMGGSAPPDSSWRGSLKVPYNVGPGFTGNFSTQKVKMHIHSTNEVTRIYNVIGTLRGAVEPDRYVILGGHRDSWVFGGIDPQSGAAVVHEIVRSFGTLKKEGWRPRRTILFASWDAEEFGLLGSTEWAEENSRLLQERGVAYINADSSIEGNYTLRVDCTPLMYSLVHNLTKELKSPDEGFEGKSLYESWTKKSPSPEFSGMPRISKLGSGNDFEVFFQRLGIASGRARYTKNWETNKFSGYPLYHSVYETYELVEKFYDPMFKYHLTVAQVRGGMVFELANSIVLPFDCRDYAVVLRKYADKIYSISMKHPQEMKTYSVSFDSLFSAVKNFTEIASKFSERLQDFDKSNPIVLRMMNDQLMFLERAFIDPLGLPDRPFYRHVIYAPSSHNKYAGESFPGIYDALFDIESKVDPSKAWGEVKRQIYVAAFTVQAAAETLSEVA

In the case of `C[Si](C)(CCC[N+](CCCS(=O)(=O)[O-])(CCCS(=O)(=O)O)CCCS(=O)(=O)O)O[Si]1(O[Si](C)(C)CCC[N+](CCCS(=O)(=O)[O-])(CCCS(=O)(=O)O)CCCS(=O)(=O)O)n2c3c4ccccc4c2N=C2N=C(N=c4c5c(OCCCOC(=O)NCCCCCC(=O)NCCCC[C@H](NC(=O)CN6CCN(CC(=O)O)CCN(CC(=O)O)CCN(CC(=O)O)CC6)C(=O)NCCCC[C@H](NC(=O)[C@H](CCC(=O)O)NC(=O)c6ccccc6)C(=O)NC[C@H]6CC[C@H](C(=O)N[C@@H](Cc7ccc8ccccc8c7)C(=O)NCCCC[C@H](NC(=O)N[C@@H](CCC(=O)O)C(=O)O)C(=O)O)CC6)cccc5c(n41)=NC1=NC(=N3)c3ccccc31)c1ccccc12` [PSMA-N03], the IC50 in series [1] is 41.8 nM; in series [1] (listed as -N03), under 50 nM.

For the molecule `C[Si](C)(CCC[N+](CCCS(=O)(=O)[O-])(CCCS(=O)(=O)O)CCCS(=O)(=O)O)O[Si]1(O[Si](C)(C)CCC[N+](CCCS(=O)(=O)[O-])(CCCS(=O)(=O)O)CCCS(=O)(=O)O)n2c3c4ccccc4c2N=C2N=C(N=c4c5c(OCCCOC(=O)NCCCCCC(=O)NCCCC[C@H](NC(=O)CCC(C(=O)O)N6CCN(CC(=O)O)CCN(CC(=O)O)CCN(CC(=O)O)CC6)C(=O)N[C@@H](Cc6ccccc6)C(=O)N[C@@H](CCC(=O)O)C(=O)N[C@@H](CCC(=O)O)C(=O)NCCCCCC(=O)NCCCC[C@H](NC(=O)N[C@@H](CCC(=O)O)C(=O)O)C(=O)O)cccc5c(n41)=NC1=NC(=N3)c3ccccc31)c1ccccc12` (stereo partly drawn) [PSMA-N064], the tissue uptake at 2 h in series [2] (iv, 0.1 nmol, 0.1 nmol, 10 MBq, i.v., read-out: Biodistribution Blood) came out at 0.2 ± 0.2 %ID/g; in series [2] (iv, 0.1 nmol, 0.1 nmol, 10 MBq, i.v., read-out: Biodistribution Bone), 0.7 ± 0.2 %ID/g; in series [2] (iv, 0.1 nmol, 0.1 nmol, 10 MBq, i.v., read-out: Biodistribution Kidney), 82.9 ± 7.8 %ID/g; in series [2] (iv, 0.1 nmol, 0.1 nmol, 10 MBq, i.v., read-out: Biodistribution Liver) it was 0.8 ± 0.1 %ID/g; in series [2] (iv, 0.1 nmol, 0.1 nmol, 10 MBq, i.v., read-out: Biodistribution Muscle), 0.4 ± 0.4 %ID/g; in series [2] (iv, 0.1 nmol, 0.1 nmol, 10 MBq, i.v., read-out: Biodistribution Prostate) it was 0.5 ± 0.2 %ID/g. For the same molecule, the tissue uptake at 2 h was 0.6 ± 0.1 %ID/g in series [2] (iv, 0.1 nmol, 0.1 nmol, 10 MBq, i.v., read-out: Biodistribution Salivary glands); 1.6 ± 0.4 %ID/g in series [2] (iv, 0.1 nmol, 0.1 nmol, 10 MBq, i.v., read-out: Biodistribution Spleen); 12 ± 2 %ID/g in series [2] (iv, 0.1 nmol, 0.1 nmol, 10 MBq, i.v., read-out: Biodistribution Tumor+ LS174T-PSMA); 0.4 ± 0.1 %ID/g in series [2] (iv, 0.1 nmol, 0.1 nmol, 10 MBq, i.v., read-out: Biodistribution Tumor- LS174T); 0.4 ± 0.3 %ID/g in series [2] (iv, 0.3 nmol, 0.3 nmol, 10 MBq, i.v., read-out: Biodistribution Blood); 0.8 ± 0.1 %ID/g in series [2] (iv, 0.3 nmol, 0.3 nmol, 10 MBq, i.v., read-out: Biodistribution Bone). Moreover, the tissue uptake at 2 h in series [2] (iv, 0.3 nmol, 0.3 nmol, 10 MBq, i.v., read-out: Biodistribution Kidney) stood at 64.4 ± 9.7 %ID/g; in series [2] (iv, 0.3 nmol, 0.3 nmol, 10 MBq, i.v., read-out: Biodistribution Liver), 1 ± 0.2 %ID/g; in series [2] (iv, 0.3 nmol, 0.3 nmol, 10 MBq, i.v., read-out: Biodistribution Muscle) it was 0.5 ± 0.3 %ID/g; in series [2] (iv, 0.3 nmol, 0.3 nmol, 10 MBq, i.v., read-out: Biodistribution Prostate), 0.6 ± 0.2 %ID/g; in series [2] (iv, 0.3 nmol, 0.3 nmol, 10 MBq, i.v., read-out: Biodistribution Salivary glands), 0.6 ± 0.2 %ID/g; in series [2] (iv, 0.3 nmol, 0.3 nmol, 10 MBq, i.v., read-out: Biodistribution Spleen), 1.9 ± 0.5 %ID/g. For the same molecule, the tissue uptake at 2 h in series [2] (iv, 0.3 nmol, 0.3 nmol, 10 MBq, i.v., read-out: Biodistribution Tumor+ LS174T-PSMA) was 12.2 ± 1.1 %ID/g; in series [2] (iv, 0.3 nmol, 0.3 nmol, 10 MBq, i.v., read-out: Biodistribution Tumor- LS174T), 0.5 ± 0.1 %ID/g; in series [2] (0.1 nmol + 10 nmol unlabeled PSMA-617 (block, 100x excess), read-out: Biodistribution Blood), 0.2 ± 0.1 %ID/g; in series [2] (0.1 nmol + 10 nmol unlabeled PSMA-617 (block, 100x excess), read-out: Biodistribution Bone), 0.4 ± 0.1 %ID/g; in series [2] (0.1 nmol + 10 nmol unlabeled PSMA-617 (block, 100x excess), read-out: Biodistribution Kidney), 39.5 ± 5 %ID/g; in series [2] (0.1 nmol + 10 nmol unlabeled PSMA-617 (block, 100x excess), read-out: Biodistribution Liver), 0.7 ± 0.2 %ID/g. Further, the tissue uptake at 2 h in series [2] (0.1 nmol + 10 nmol unlabeled PSMA-617 (block, 100x excess), read-out: Biodistribution Muscle) was found to be 0.1 ± 0.1 %ID/g; in series [2] (0.1 nmol + 10 nmol unlabeled PSMA-617 (block, 100x excess), read-out: Biodistribution Prostate), 0.2 ± 0.1 %ID/g; in series [2] (0.1 nmol + 10 nmol unlabeled PSMA-617 (block, 100x excess), read-out: Biodistribution Salivary glands) it was 0.4 ± 0.1 %ID/g; in series [2] (0.1 nmol + 10 nmol unlabeled PSMA-617 (block, 100x excess), read-out: Biodistribution Spleen) it was 0.5 ± 0.1 %ID/g; in series [2] (0.1 nmol + 10 nmol unlabeled PSMA-617 (block, 100x excess), read-out: Biodistribution Tumor+ LS174T-PSMA), 1 ± 0.1 %ID/g; in series [2] (0.1 nmol + 10 nmol unlabeled PSMA-617 (block, 100x excess), read-out: Biodistribution Tumor- LS174T), 0.4 ± 0.2 %ID/g.

As for `C[Si](C)(CCC[N+](CCCS(=O)(=O)[O-])(CCCS(=O)(=O)O)CCCS(=O)(=O)O)O[Si]1(O[Si](C)(C)CCC[N+](CCCS(=O)(=O)[O-])(CCCS(=O)(=O)O)CCCS(=O)(=O)O)n2c3c4ccccc4c2N=C2N=C(N=c4c5c(OCCCOC(=O)NCCCCCC(=O)NCCCC[C@H](NC(=O)CN6CCN(CC(=O)O)CCN(CC(=O)O)CCN(CC(=O)O)CC6)C(=O)NCCCC[C@H](NC(=O)[C@H](CCC(=O)O)NC(=O)c6ccccc6)C(=O)NCc6ccc(C(=O)N[C@@H](Cc7ccc8ccccc8c7)C(=O)NCCCC[C@H](NC(=O)N[C@@H](CCC(=O)O)C(=O)O)C(=O)O)cc6)cccc5c(n41)=NC1=NC(=N3)c3ccccc31)c1ccccc12` [PSMA-N01], the IC50 in series [1] was 44.8 nM and < 50 nM.

Source of the values: article PMC9165289, “Theranostic PSMA ligands with optimized backbones for intraoperative multimodal imaging and photodynamic therapy of prostate cancer” (European Journal of Nuclear Medicine and Molecular Imaging, 2022).
